Measured values taken from PMC3223699 (Cell Death & Disease, 2011).
Ends that are not written are not given here.

Legend:
P. falciparum 3D7 = assay: Recovery of treated parasite culture after peptide removal; type: cell-based, Plasmodium falciparum; conditions: 50 μM (~EC50), removed at 4 h, then grown 24 h
P. falciparum = conditions: asexual stage P. falciparum; ref [30], [31]; cited from earlier work
[1] = target: recombinant PfClpQ, mature region (38-170 aa) (P. falciparum); assay: SPR

For FIKQYDLKKYII [FI-peptide], the “growth inhibition after peptide removal at 4 h” value (P. falciparum 3D7) was less than 20%.

In the case of `CCN(CC)CCCC(C)Nc1ccnc2cc(Cl)ccc12` (centres unmarked) [chloroquine], the “apoptosis-like features (in words)” value (P. falciparum) is given as “loss of mitochondrial membrane potential (Δψm), activation of caspase-like cytseine proteases and nuclear DNA fragmentation”.

B1: FI-peptide, 12-amino-acid synthetic peptide corresponding to the C terminus of PfClpY (peptide)
peptide: FIKQYDLKKYII
B1 showed a Kd [1] of 62.4 µM, a koff [1] of 0.00976 s⁻¹ and a kon [1] of 157 M⁻¹ s⁻¹.
